Residue numbers refer to the chain shown, from its start. In names and notes the source's numbering stands. Several values for one entry are separate records, joined by “and”; a condition that tells them apart may be missing. Equal entries are not always repeated.

The source of these data is publication PMC2801813 (Biochemistry, 2009).

Substrate in data set [1]: O=C(O)C(=O)O
Description: purified protein. To be noted: buffer and temperature same.

Data set [2] concerns the molecule itself. As to the kind of experiment: SEC.

B1: OxDC (oxalate decarboxylase) (Bacillus subtilis subsp. subtilis str. 168; E101Q/E280Q) (protein)
chain: MKKQNDIPQPIRGDKGATVKIPRNIERDRQNPDMLVPPETDHGTVSNMKFSFSDTHNRLEKGGYAREVTVRELPISENLASVNMRLKPGAIRELHWHKEAQWAYMIYGSARVTIVDEKGRSFIDDVGEGDLWYFPSGLPHSIQALEEGAEFLLVFDDGSFSENSTFQLTDWLAHTPKEVIAANFGVTKEEISNLPGKEKYIFENQLPGSLKDDIVEGPNGEVPYPFTYRLLEQEPIESEGGKVYIADSTNFKVSKTIASALVTVEPGAMRELHWHPNTHQWQYYISGKARMTVFASDGHARTFNYQAGDVGYVPFAMGHYVENIGDEPLVFLEIFKDDHYADVSLNQWLAMLPETFVQAHLDLGKDFTDVLSKEKHPVVKKKCSK
In the case of B1, in data set [1] (0.07 Mn/monomer), the Km turned out to be 2.9 ± 0.3 mM, the kcat was found to be 0.012 ± 0.0003 s⁻¹ and the kcat/Km turned out to be 4 M⁻¹ s⁻¹.

B2: OxDC (oxalate decarboxylase) (Bacillus subtilis subsp. subtilis str. 168; E101A) (protein)
chain: B1 chain with Q101A, Q280E
Turning to B2, in data set [1] (0.18 Mn/monomer), the Km worked out at 2.9 ± 0.3 mM, the kcat is 0.046 ± 0.002 s⁻¹ and the kcat/Km came out at 16 M⁻¹ s⁻¹.

B3: OxDC (oxalate decarboxylase) (Bacillus subtilis subsp. subtilis str. 168; E101Q) (protein)
chain: B1 chain with Q280E
As to B3, in data set [1] (0.11 Mn/monomer), the Km was determined as 4.0 ± 0.2 mM, the kcat was found to be 0.62 ± 0.01 s⁻¹ and the specificity constant (kcat/Km) was 155 M⁻¹ s⁻¹.

B4: OxDC (oxalate decarboxylase) (Bacillus subtilis subsp. subtilis str. 168; E280D) (protein)
chain: B1 chain with Q101E, Q280D
With B4, in data set [1] (0.64 Mn/monomer), the Km is 5.4 ± 0.4 mM, the kcat worked out at 0.14 ± 0.01 s⁻¹ and the kcat/Km was 26 M⁻¹ s⁻¹.

B5: OxDC (oxalate decarboxylase) (Bacillus subtilis subsp. subtilis str. 168; E280Q) (protein)
chain: B1 chain with Q101E
On to B5, for which, in data set [1] (0.73 Mn/monomer), the Km turned out to be 10.1 ± 0.6 mM, the kcat is 0.62 ± 0.01 s⁻¹ and the kcat/Km stood at 61 M⁻¹ s⁻¹.

B6: OxDC (oxalate decarboxylase) (Bacillus subtilis subsp. subtilis str. 168; E280A) (protein)
chain: B1 chain with Q101E, Q280A
With B6, in data set [1] (0.67 Mn/monomer), the Km was determined as 3.0 ± 0.2 mM, the kcat is 0.019 ± 0.001 s⁻¹ and the kcat/Km stood at 6 M⁻¹ s⁻¹.

B7: OxDC (oxalate decarboxylase) (Bacillus subtilis subsp. subtilis str. 168; E101D) (protein)
chain: B1 chain with Q101D, Q280E
B7: in data set [1] (0.09 Mn/monomer), the Michaelis-Menten constant (Km) is 3.4 ± 0.1 mM, the kcat came to 0.49 ± 0.01 s⁻¹ and the kcat/Km amounted to 144 M⁻¹ s⁻¹.

B8: recombinant, wild-type Bacillus subtilis oxalate decarboxylase (enzyme, UniProt O34714 1-385, looked up)
chain: B1 chain with Q101E, Q280E
On to B8, for which the “stoichiometry N” value in data set [2] was 6 and 12 monomers to 18 monomers (2×).
